Data taken from article doi:10.1101/2022.01.25.477707 (bioRxiv, 2022).
Residue numbers refer to the chain shown, from its start. In names and notes the source's numbering stands. One block for each binder: values may come before it.

Assays:
SEC-MALS = target: the molecule itself; assay: SEC-MALS
[1] = target: T1, G5_(845-1508)-A951E-TAP (human), Q8TEQ6; assay: co-IP; conditions: remark: other sources report otherwise
T1 chain: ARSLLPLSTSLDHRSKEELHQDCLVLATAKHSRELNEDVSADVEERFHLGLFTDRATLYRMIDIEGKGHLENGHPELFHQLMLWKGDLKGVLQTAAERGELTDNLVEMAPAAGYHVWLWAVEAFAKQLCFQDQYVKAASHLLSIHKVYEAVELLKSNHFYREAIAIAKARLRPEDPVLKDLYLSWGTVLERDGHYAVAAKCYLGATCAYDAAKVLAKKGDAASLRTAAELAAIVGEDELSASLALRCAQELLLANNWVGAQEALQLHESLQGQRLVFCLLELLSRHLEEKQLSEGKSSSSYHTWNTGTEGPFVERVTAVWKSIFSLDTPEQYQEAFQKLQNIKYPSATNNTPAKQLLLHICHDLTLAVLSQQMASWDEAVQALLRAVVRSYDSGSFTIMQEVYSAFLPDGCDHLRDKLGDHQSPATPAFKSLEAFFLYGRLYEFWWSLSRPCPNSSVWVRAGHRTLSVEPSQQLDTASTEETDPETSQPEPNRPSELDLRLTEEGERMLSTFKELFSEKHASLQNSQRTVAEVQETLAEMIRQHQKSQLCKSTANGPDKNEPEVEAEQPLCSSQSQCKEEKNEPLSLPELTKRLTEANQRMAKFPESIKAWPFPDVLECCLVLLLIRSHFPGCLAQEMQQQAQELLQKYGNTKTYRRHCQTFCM

G5_(845-1508)-R1016C-TAP = target: T2, G5_(845-1508)-R1016C-TAP (human, UniProt Q8TEQ6 845-1508, R1016C); assay: co-IP
T2 sequence (looked up): T1 chain with E107A, R172C

G5_(845-1508)-D1019E-TAP = target: T3, G5_(845-1508)-D1019E-TAP (human, UniProt Q8TEQ6 845-1508, D1019E); assay: co-IP
T3 sequence (looked up): T1 chain with E107A, D175E

B1: Gemin5 TPR-like dimerization domain R1016C (domain or fragment, human, UniProt Q8TEQ6 845-1097, looked up)
chain: ARSLLPLSTSLDHRSKEELHQDCLVLATAKHSRELNEDVSADVEERFHLGLFTDRATLYRMIDIEGKGHLENGHPELFHQLMLWKGDLKGVLQTAAERGELTDNLVAMAPAAGYHVWLWAVEAFAKQLCFQDQYVKAASHLLSIHKVYEAVELLKSNHFYREAIAIAKARLCPEDPVLKDLYLSWGTVLERDGHYAVAAKCYLGATCAYDAAKVLAKKGDAASLRTAAELAAIVGEDELSASLALRCAQELLL
stoichiometry N (SEC-MALS): 2

B2: Gemin5 TPR-like dimerization domain D1019E (domain or fragment, human, UniProt Q8TEQ6 845-1097, looked up)
chain: B1 chain with C172R, D175E
stoichiometry N (SEC-MALS): 2

fold by which the recruitment of Gemin5 by WT exceeds that by this mutant [1]: 10 fold
intensity of co-IP relative to the WT protein (G5_(845-1508)-R1016C-TAP): 58 % relative to the WT protein
intensity of co-IP relative to the WT protein (G5_(845-1508)-D1019E-TAP): 62 % relative to the WT protein
B3: Gemin5 endogenous protein (natural protein, human (endogenous in HEK293), UniProt Q8TEQ6 1-1508, looked up)
chain: MGQEPRTLPPSPNWYCARCSDAVPGGLFGFAARTSVFLVRVGPGAGESPGTPPFRVIGELVGHTERVSGFTFSHHPGQYNLCATSSDDGTVKIWDVETKTVVTEHALHQHTISTLHWSPRVKDLIVSGDEKGVVFCYWFNRNDSQHLFIEPRTIFCLTCSPHHEDLVAIGYKDGIVVIIDISKKGEVIHRLRGHDDEIHSIAWCPLPGEDCLSINQEETSEEAEITNGNAVAQAPVTKGCYLATGSKDQTIRIWSCSRGRGVMILKLPFLKRRGGGIDPTVKERLWLTLHWPSNQPTQLVSSCFGGELLQWDLTQSWRRKYTLFSASSEGQNHSRIVFNLCPLQTEDDKQLLLSTSMDRDVKCWDIATLECSWTLPSLGGFAYSLAFSSVDIGSLAIGVGDGMIRVWNTLSIKNNYDVKNFWQGVKSKVTALCWHPTKEGCLAFGTDDGKVGLYDTYSNKPPQISSTYHKKTVYTLAWGPPVPPMSLGGEGDRPSLALYSCGGEGIVLQHNPWKLSGEAFDINKLIRDTNSIKYKLPVHTEISWKADGKIMALGNEDGSIEIFQIPNLKLICTIQQHHKLVNTISWHHEHGSQPELSYLMASGSNNAVIYVHNLKTVIESSPESPVTITEPYRTLSGHTAKITSVAWSPHHDGRLVSASYDGTAQVWDALREEPLCNFRGHRGRLLCVAWSPLDPDCIYSGADDFCVHKWLTSMQDHSRPPQGKKSIELEKKRLSQPKAKPKKKKKPTLRTPVKLESIDGNEEESMKENSGPVENGVSDQEGEEQAREPELPCGLAPAVSREPVICTPVSSGFEKSKVTINNKVILLKKEPPKEKPETLIKKRKARSLLPLSTSLDHRSKEELHQDCLVLATAKHSRELNEDVSADVEERFHLGLFTDRATLYRMIDIEGKGHLENGHPELFHQLMLWKGDLKGVLQTAAERGELTDNLVAMAPAAGYHVWLWAVEAFAKQLCFQDQYVKAASHLLSIHKVYEAVELLKSNHFYREAIAIAKARLRPEDPVLKDLYLSWGTVLERDGHYAVAAKCYLGATCAYDAAKVLAKKGDAASLRTAAELAAIVGEDELSASLALRCAQELLLANNWVGAQEALQLHESLQGQRLVFCLLELLSRHLEEKQLSEGKSSSSYHTWNTGTEGPFVERVTAVWKSIFSLDTPEQYQEAFQKLQNIKYPSATNNTPAKQLLLHICHDLTLAVLSQQMASWDEAVQALLRAVVRSYDSGSFTIMQEVYSAFLPDGCDHLRDKLGDHQSPATPAFKSLEAFFLYGRLYEFWWSLSRPCPNSSVWVRAGHRTLSVEPSQQLDTASTEETDPETSQPEPNRPSELDLRLTEEGERMLSTFKELFSEKHASLQNSQRTVAEVQETLAEMIRQHQKSQLCKSTANGPDKNEPEVEAEQPLCSSQSQCKEEKNEPLSLPELTKRLTEANQRMAKFPESIKAWPFPDVLECCLVLLLIRSHFPGCLAQEMQQQAQELLQKYGNTKTYRRHCQTFCM
